Data as given in US20240368668A1, “SUBSTRATES AND BIOMARKERS OF ADAMTS7” (The Broad Institute, Inc., priority 2021, published 2024).
Square brackets hold non-standard residues; d marks the D form. Ends that are not written are not given here. deamidated = deamidated asparagine; Met(O) = CS(=O)CC[C@H](N)C(=O)O

Target: T1, mouse ADAMTS7 (Mus musculus, UniProt Q68SA9)
T1 construct: Full-length mouse Adamts7 1-1857 (Uniprot Q68SA9, WT or E373Q catalytic mutant); expressed in transfected cells; host or cells: Human Coronary Artery Smooth Muscle Cells (HCA-SMC, Lonza), adenovirus 50 MOI
T1 sequence (Q68SA9 221-1657): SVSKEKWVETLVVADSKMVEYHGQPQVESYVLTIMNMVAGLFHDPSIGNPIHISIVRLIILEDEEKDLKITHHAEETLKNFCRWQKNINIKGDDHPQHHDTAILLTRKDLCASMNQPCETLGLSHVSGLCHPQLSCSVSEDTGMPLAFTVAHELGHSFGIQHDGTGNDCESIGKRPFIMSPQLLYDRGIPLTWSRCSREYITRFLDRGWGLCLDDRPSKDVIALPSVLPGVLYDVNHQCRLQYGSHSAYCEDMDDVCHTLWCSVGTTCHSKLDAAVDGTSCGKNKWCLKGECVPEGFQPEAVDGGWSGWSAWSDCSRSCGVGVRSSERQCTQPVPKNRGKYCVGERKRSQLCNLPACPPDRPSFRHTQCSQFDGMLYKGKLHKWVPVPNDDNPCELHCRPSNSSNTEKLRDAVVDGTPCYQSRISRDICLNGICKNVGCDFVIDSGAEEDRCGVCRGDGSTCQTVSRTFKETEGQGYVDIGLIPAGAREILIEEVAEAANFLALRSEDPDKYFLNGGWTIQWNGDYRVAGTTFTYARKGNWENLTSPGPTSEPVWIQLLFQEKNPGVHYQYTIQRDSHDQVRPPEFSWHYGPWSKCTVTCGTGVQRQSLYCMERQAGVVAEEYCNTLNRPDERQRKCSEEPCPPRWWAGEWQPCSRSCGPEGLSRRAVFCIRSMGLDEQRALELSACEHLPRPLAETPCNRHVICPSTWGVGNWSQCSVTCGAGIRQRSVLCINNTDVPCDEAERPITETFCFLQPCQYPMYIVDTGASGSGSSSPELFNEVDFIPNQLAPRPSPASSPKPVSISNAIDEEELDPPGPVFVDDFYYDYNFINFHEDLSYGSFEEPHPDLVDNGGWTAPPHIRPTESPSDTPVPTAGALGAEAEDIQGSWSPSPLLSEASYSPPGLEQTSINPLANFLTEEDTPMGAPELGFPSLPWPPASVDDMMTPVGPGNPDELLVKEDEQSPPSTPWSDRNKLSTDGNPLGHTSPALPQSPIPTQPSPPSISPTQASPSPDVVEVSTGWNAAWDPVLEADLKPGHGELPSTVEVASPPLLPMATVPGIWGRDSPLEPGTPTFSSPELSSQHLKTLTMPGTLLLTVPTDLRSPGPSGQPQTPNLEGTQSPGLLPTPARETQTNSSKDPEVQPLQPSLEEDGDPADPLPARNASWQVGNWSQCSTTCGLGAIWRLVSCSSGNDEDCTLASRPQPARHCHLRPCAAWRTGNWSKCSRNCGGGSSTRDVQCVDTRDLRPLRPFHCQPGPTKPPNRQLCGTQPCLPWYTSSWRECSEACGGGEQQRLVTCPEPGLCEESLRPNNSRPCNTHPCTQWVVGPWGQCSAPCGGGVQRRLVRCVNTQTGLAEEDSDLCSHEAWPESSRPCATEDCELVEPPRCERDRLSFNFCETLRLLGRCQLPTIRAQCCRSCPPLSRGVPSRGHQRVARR
Assay: TMT10 TAILS N-terminomics, SMC1 experiment (Ad-mADAMTS7 WT vs EQ vs Luc, technical replicates, trypsin digest)
Format: cell-based
Details: TAILS neo-N-terminal peptide abundance; log fold change, Ad-mADAMTS7 WT over Luc
Procedure, shortened: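 Full-length mouse ADAMTS7 (WT or E373Q mutant, C-terminal 3xFLAG) or luciferase was transduced via adenovirus, 50 MOI, into HCA-SMC (SMC1, SMC2) or HUVEC. SMC1: pooled media, technical triplicates 400 ug; SMC2: process triplicates 300 ug; HUVEC: process triplicates 200 ug, bFGF2 10 ng/ml.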

Substance	logFC.mWT.over.Lux
CDC37_43 (FQKEKEELDR; listed as Homo sapiens)	1.75
CDH11_467 (HQEAKVPVAIR; listed as Homo sapiens)	2.02
CLEC11A_50 (HLQEALGLPAGR; listed as Homo sapiens)	1.08
COL1A2_80 (QYDGKGVGLGPGPMGLMGPR; listed as Homo sapiens)	2.55
COL1A2_91 (GPMGLMGPR; listed as Homo sapiens)	1.09
COL1A2_113 (FQGPAGEPGEPGQTGPAGAR; listed as Homo sapiens)	1.66
COL1A2_270 (VGNAGPAGPAGPR; listed as Homo sapiens)	3.51
COL1A2_305 (LTGAKGAAGLPGVAGAPGLPGPR; listed as Homo sapiens)	1.46
COL1A2_389 (SAGPPGPPGLR; listed as Homo sapiens)	1.12
COL1A2_425 (ASGPAGVR; listed as Homo sapiens)	1.17
COL1A2_630 (VGTAGPSGPSGLPGER; listed as Homo sapiens)	1.18
COL1A2_681 (VGAPGPAGATGDR; listed as Homo sapiens)	1.27
COL1A2_731 (AAGQPGAKGER; listed as Homo sapiens)	0.84
COL1A2_866 (LLGAPGILGLPGSR; listed as Homo sapiens)	3.48
COL1A2_960 (AGAPGPHGPVGPAGKHGNR; listed as Homo sapiens)	2.56
COL1A2_1028 (LQGLPGIAGHHGDQGAPGSVGPAGPR; listed as Homo sapiens)	1.51
COL1A2_1037 (HHGDQGAPGSVGPAGPR; listed as Homo sapiens)	2.30
COL1A2_1127 (SLRPKDYEVDATLKSLNNQIETLLTPEGSR; listed as Homo sapiens)	2.23
COL4A2_71 (YNGPPGLQGFPGLQGR; listed as Homo sapiens)	1.77
COL4A2_172 (YALPKEER; listed as Homo sapiens)	5.97
COL5A1_544 (SQAQAILQQAR; listed as Homo sapiens)	0.87
COL8A1_90 (MKEIQPAPR; listed as Homo sapiens)	1.10
COL18A1_1505 (LQPPVVQLHDSNPYPR; listed as Homo sapiens)	1.41
ECM1_43 (YAAPPSPPLSR; listed as Homo sapiens)	0.63
LTBP2_1602 (EAGVHFR; listed as Homo sapiens)	1.63
MAN2A1_51 (LQEKIDHLER; listed as Homo sapiens)	2.04

Substance	logFC.mWT.over.Lux
MAP1B_1065 (LTTPTKQLGAQSPGR; listed as Homo sapiens)	1.11
MAP4_815 (AVASTGPSSR; listed as Homo sapiens)	1.29
MAP4_816 (VASTGPSSR; listed as Homo sapiens)	1.44
MGAT4B_28 (LSGQKGDVVDVYQR; listed as Homo sapiens)	1.43
MMP1_24 (LETQEQDVDLVQKYLEKYYNLKN(deamidated)DGR; listed as Homo sapiens)	2.23
NID2_291 (HSSVPLGR; listed as Homo sapiens)	3.96
NID2_374 (VGGPDLKGQVEPWDER; listed as Homo sapiens)	4.80
NID2_467 (LEDNIGSNTEVFTYNAANKETCEHNHR; listed as Homo sapiens)	2.58
NID2_951 (YAYPGAR; listed as Homo sapiens)	3.35
NUCB1_228 (LKEVWEELDGLDPNR; listed as Homo sapiens)	1.70
NUCB1_317 (FLASTQR; listed as Homo sapiens)	4.76
NUCB1_389 (LQQAVLHMEQR; listed as Homo sapiens)	2.25
OS9_54 ([code q]SQSSDVVIVSSKYKQR; also: modified N-terminal Gln; listed as Homo sapiens)	2.67
OS9_55 (SQSSDVVIVSSKYKQR; listed as Homo sapiens)	2.23
PAPPA_41 (AAGPATCATR; listed as Homo sapiens)	3.83
PDLIM4_104 (IDPEIQDGSPTTSR; listed as Homo sapiens)	1.00
POLR3G_88 (LFCSHWSHIPGFK; listed as Homo sapiens)	1.51
POSTN_413 (FSDDTLSMDQR; listed as Homo sapiens)	2.29
POSTN_754 (IITGPEIKYTR; listed as Homo sapiens)	1.77
POSTN_790 (FIEGGDGHLFEDEEIKR; listed as Homo sapiens)	0.87
POSTN_807 (LLQGDTPVR; listed as Homo sapiens)	1.10
PPP1R18_295 (LSETLTR; listed as Homo sapiens)	3.60
PSAP_171 (F[Met(O)]ANIPLLLYPQDGPR; listed as Homo sapiens)	1.13
PXDN_1341 (SYQEDKPTKKTR; listed as Homo sapiens)	6.62
PXDN_1393 (QKTITDLR; listed as Homo sapiens)	4.88
